To fix the notation:
B1: Azoarcus group I ribozyme (parent)
chain: GUGCCUUGCGCCGGGAAACCACGCAAGGGAUGGUGUCAAAUUCGGCGAAACCUAAGCGCCCGCCCGGGCGUAUGGCAACGCCGAGCCAAGCUUCGGCGCCUGCGCCGAUGAAGGUGUAGAGACUAGACGGCACCCACCUAAGGCAAACGCUAUGGUGAAGGCAUAGUCCAGGGAGUGGCGAAAGUCACACAAACCGG

In the series the parent is B1. Kind of series: reverse-splicing fitness (ratio to wild type); higher = more active; in vitro selection; Mg2+ level not given. The procedure, abridged: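 An in vitro group I ribozyme library with randomized positions was T7-transcribed and gel-purified. In triplicate, 10 pmol RNA in EPPS pH 7.5 was reacted with 50 pmoles of a 30-nt RNA substrate for 1 h at 37 °C across several added MgCl2 levels (1–48 mM), then stopped with EDTA. Products were reverse transcribed from a substrate-complementary primer, PCR-amplified and sequenced (HiSeq 4000). Fitness is a variant's read proportion after selection over that before, normalised to wild type.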
With GUGCCUUGCGCCGGGAAACCACGCAAGGGAUGGUGUCAAAUUCGGCGAAACCUAAGCGCCCGCCCGGGCGUAUGGCAACGCAGAGCCAAGCUUCGGCGCCUGCGCCGAUGAAGGUGUAGGGACUAGACGGCACCCACCUAAGGCCAACGGUAUGGUGAAGGCAUAGUCUAGGGAGAGGCGAAAGUCACACAAACCGG [C82A A120G A145C C150G C169U U176A], the reverse-splicing fitness was 0.0158.
For GUGCCUUGCGCCGGGAAACCACGCAAGGGAUGGUGUCAAAUUCGGCGAAACCUAAGCGCCCGCCCGGGCGUAUGGCAACGCCGAGCCAAGCUUCGGCGCCUGCGCCGAUGUAGGUGUAGAGACUAGACGGCACCCACCUAAGGCUAACGUUAUGGUGAAGGCAUAGUCAAGGGAGCGGCGAAAGUCACACAAACCGG [A111U A145U C150U C169A U176C], the reverse-splicing fitness is 0.0104.
On to GUGCCUUGCGCCGGGAAACCACGCAAGGGAUGGUGUCAAAUUCGGCGAAACCUAAGCGCCCGCCCGGGCGUAUGGCAACGCCGAGCCAAGCUUCGGCGCCUGCGCCGAUGAAGGUGUAGCGACUAGACGGCACCCACCUAAGGCUAACGGUAUGGUGAAGGCAUAGUCUAGGGAGAGGCGAAAGUCACACAAACCGG [A120C A145U C150G C169U U176A], for which the reverse-splicing fitness turned out to be 0.0184.
Turning to GUGCCUUGCGCCGGGAAACCACGCAAGGGAUGGUGUCAAAUUCGGCGAAACCUAAGCGCCCGCCCGGGCGUAUGGCAACGCGGAGCCAAGCUUCGGCGCCUGCGCCGAUGGAGGUGUAGGGACUAGACGGCACCCACCUAAGGCCAACGAUAUGGUGAAGGCAUAGUCCAGGGAGGGGCGAAAGUCACACAAACCGG [C82G A111G A120G A145C C150A U176G], the reverse-splicing fitness turned out to be 0.00588.
Regarding GUGCCUUGCGCCGGGAAACCACGCAAGGGAUGGUGUCAAAUUCGGCGAAACCUAAGCGCCCGCCCGGGCGUAUGGCAACGCUGAGCCAAGCUUCGGCGCCUGCGCCGAUGCAGGUGUAGCGACUAGACGGCACCCACCUAAGGCUAACGCUAUGGUGAAGGCAUAGUCGAGGGAGAGGCGAAAGUCACACAAACCGG [C82U A111C A120C A145U C169G U176A], the reverse-splicing fitness is 0.013.
Turning to GUGCCUUGCGCCGGGAAACCACGCAAGGGAUGGUGUCAAAUUCGGCGAAACCUAAGCGCCCGCCCGGGCGUAUGGCAACGCGGAGCCAAGCUUCGGCGCCUGCGCCGAUGCAGGUGUAGUGACUAGACGGCACCCACCUAAGGCCAACGCUAUGGUGAAGGCAUAGUCAAGGGAGUGGCGAAAGUCACACAAACCGG [C82G A111C A120U A145C C169A], the reverse-splicing fitness was 0.00204.
As to GUGCCUUGCGCCGGGAAACCACGCAAGGGAUGGUGUCAAAUUCGGCGAAACCUAAGCGCCCGCCCGGGCGUAUGGCAACGCGGAGCCAAGCUUCGGCGCCUGCGCCGAUGUAGGUGUAGGGACUAGACGGCACCCACCUAAGGCCAACGCUAUGGUGAAGGCAUAGUCAAGGGAGGGGCGAAAGUCACACAAACCGG [C82G A111U A120G A145C C169A U176G], the reverse-splicing fitness was 0.00399.
As for GUGCCUUGCGCCGGGAAACCACGCAAGGGAUGGUGUCAAAUUCGGCGAAACCUAAGCGCCCGCCCGGGCGUAUGGCAACGCCGAGCCAAGCUUCGGCGCCUGCGCCGAUGCAGGUGUAGAGACUAGACGGCACCCACCUAAGGCCAACGAUAUGGUGAAGGCAUAGUCAAGGGAGGGGCGAAAGUCACACAAACCGG [A111C A145C C150A C169A U176G], the reverse-splicing fitness was determined as 0.00714.
Turning to GUGCCUUGCGCCGGGAAACCACGCAAGGGAUGGUGUCAAAUUCGGCGAAACCUAAGCGCCCGCCCGGGCGUAUGGCAACGCUGAGCCAAGCUUCGGCGCCUGCGCCGAUGGAGGUGUAGUGACUAGACGGCACCCACCUAAGGCAAACGGUAUGGUGAAGGCAUAGUCUAGGGAGAGGCGAAAGUCACACAAACCGG [C82U A111G A120U C150G C169U U176A], the reverse-splicing fitness worked out at 0.00387.
For the variant GUGCCUUGCGCCGGGAAACCACGCAAGGGAUGGUGUCAAAUUCGGCGAAACCUAAGCGCCCGCCCGGGCGUAUGGCAACGCCGAGCCAAGCUUCGGCGCCUGCGCCGAUGCAGGUGUAGAGACUAGACGGCACCCACCUAAGGCGAACGCUAUGGUGAAGGCAUAGUCGAGGGAGUGGCGAAAGUCACACAAACCGG [A111C A145G C169G], the reverse-splicing fitness came out at 0.0737.
Consider GUGCCUUGCGCCGGGAAACCACGCAAGGGAUGGUGUCAAAUUCGGCGAAACCUAAGCGCCCGCCCGGGCGUAUGGCAACGCAGAGCCAAGCUUCGGCGCCUGCGCCGAUGCAGGUGUAGCGACUAGACGGCACCCACCUAAGGCUAACGUUAUGGUGAAGGCAUAGUCCAGGGAGCGGCGAAAGUCACACAAACCGG [C82A A111C A120C A145U C150U U176C], for which the reverse-splicing fitness turned out to be 0.0187.
For GUGCCUUGCGCCGGGAAACCACGCAAGGGAUGGUGUCAAAUUCGGCGAAACCUAAGCGCCCGCCCGGGCGUAUGGCAACGCUGAGCCAAGCUUCGGCGCCUGCGCCGAUGCAGGUGUAGUGACUAGACGGCACCCACCUAAGGCUAACGUUAUGGUGAAGGCAUAGUCUAGGGAGAGGCGAAAGUCACACAAACCGG [C82U A111C A120U A145U C150U C169U U176A], the reverse-splicing fitness is 0.00267.
Regarding GUGCCUUGCGCCGGGAAACCACGCAAGGGAUGGUGUCAAAUUCGGCGAAACCUAAGCGCCCGCCCGGGCGUAUGGCAACGCAGAGCCAAGCUUCGGCGCCUGCGCCGAUGCAGGUGUAGGGACUAGACGGCACCCACCUAAGGCCAACGUUAUGGUGAAGGCAUAGUCGAGGGAGCGGCGAAAGUCACACAAACCGG [C82A A111C A120G A145C C150U C169G U176C], the reverse-splicing fitness worked out at 0.0133.
The figure for GUGCCUUGCGCCGGGAAACCACGCAAGGGAUGGUGUCAAAUUCGGCGAAACCUAAGCGCCCGCCCGGGCGUAUGGCAACGCGGAGCCAAGCUUCGGCGCCUGCGCCGAUGCAGGUGUAGCGACUAGACGGCACCCACCUAAGGCCAACGAUAUGGUGAAGGCAUAGUCCAGGGAGUGGCGAAAGUCACACAAACCGG [C82G A111C A120C A145C C150A] is 0.00907; for GUGCCUUGCGCCGGGAAACCACGCAAGGGAUGGUGUCAAAUUCGGCGAAACCUAAGCGCCCGCCCGGGCGUAUGGCAACGCAGAGCCAAGCUUCGGCGCCUGCGCCGAUGCAGGUGUAGCGACUAGACGGCACCCACCUAAGGCUAACGUUAUGGUGAAGGCAUAGUCGAGGGAGCGGCGAAAGUCACACAAACCGG [C82A A111C A120C A145U C150U C169G U176C] it is 0.015.

Source of the values: the RNAGym collection of RNA variant scans (doi:10.1093/molbev/msab373).
